Measurements as given in patent publication US10919943B2, “Mutant proteins enabling agrochemical control of plant gene expression” (The Regents of the University of California, priority 2016, dated 2021).

Molecular target: T1, wild type HAB1 (Arabidopsis thaliana, UniProt O49686+Q9CAJ0, A160V/F108A/F159V/K59R/M158I/S122G/T162D/V81I/Y58H)
T1 construct: expressed in transfected cells
T1 sequence (Q9CAJ0 4-511): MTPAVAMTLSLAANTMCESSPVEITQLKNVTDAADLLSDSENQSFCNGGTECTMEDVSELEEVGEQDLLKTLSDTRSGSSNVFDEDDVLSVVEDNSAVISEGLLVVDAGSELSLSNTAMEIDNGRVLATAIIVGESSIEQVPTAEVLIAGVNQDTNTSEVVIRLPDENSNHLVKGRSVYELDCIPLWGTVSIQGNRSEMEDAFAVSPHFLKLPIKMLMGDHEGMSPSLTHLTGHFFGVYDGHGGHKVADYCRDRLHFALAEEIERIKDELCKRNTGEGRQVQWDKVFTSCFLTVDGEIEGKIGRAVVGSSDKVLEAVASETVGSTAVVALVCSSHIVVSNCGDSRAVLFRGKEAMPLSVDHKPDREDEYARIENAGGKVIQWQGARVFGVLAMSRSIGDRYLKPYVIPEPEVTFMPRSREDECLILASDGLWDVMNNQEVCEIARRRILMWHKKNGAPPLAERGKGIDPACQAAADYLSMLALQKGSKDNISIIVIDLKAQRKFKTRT
T1 sequence (O49686 1-191 Y58H/K59R/V81I/F108A/S122G/M158I/F159V/A160V/T162D): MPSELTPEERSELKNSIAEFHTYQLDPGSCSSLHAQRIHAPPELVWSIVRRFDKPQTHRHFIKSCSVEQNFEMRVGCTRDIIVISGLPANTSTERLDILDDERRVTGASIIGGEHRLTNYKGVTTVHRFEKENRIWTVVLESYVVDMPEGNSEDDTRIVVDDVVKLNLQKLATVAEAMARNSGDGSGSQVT
Assay: Yeast two hybrid, mandipropamid-promoted interaction of PYR1 variants with wild type HAB1
Assay type: cell-based
Description: To engineer orthogonal mandipropamid responsiveness, we introduced the PYR1^! mutation into the PYR1^MANDI receptor to create a septuple mutant called PYR1^!-MANDI (PYR1^Y58H;K59R;V81I;F108A;S122G;F159L;T162D). This mutant interacts with HAB1^! and HAB^!-2 in response to low μM mandipropamid in yeast two-hybrid assays, but is ˜100-fold less sensitive than the PYR1^MANDI/HAB1 interaction, which responds to concentrations in the low nM range (FIG. 3).
To improve sensitivity, we mutagenized ligand contacting and interface residues in PYR1^!-MANDI using NNK primers, pooled the mutant libraries, and used the mutagenized receptors in selection experiments using to identify enhancer mutations. The NNK mutagenesis screen targeted the following residues: P55, H60, F61, I62, K63, V83, S85, G86, L87, P88, A89, S92, E94, I110, H115, R116, L117, Y120, E141, P148, G150, N151, D154, D155, T156, M158, A160, V163, V164, L166, N167, and K170. […] Since M158 and A160 flank the F159V mutation present in PYR1^MANDI, we inferred that the closely located orthogonalizing T162D mutation in PYR1^!-MANDI may have reduced mandipropamid sensitivity by altering the local structure of the C-terminal α3-helix, which participates in ligand-induced conformational changes needed for PP2C binding (Nishimura et al., 2009). […]

B1: PYR1*^-MANDI: PYR1 mutant with 9 mutations, most sensitive to mandipropamid (protein, listed as Arabidopsis thaliana)
chain: T1 sequence (O49686 1-191 Y58H/K59R/V81I/F108A/S122G/M158I/F159V/A160V/T162D)
For B1, the “fold less sensitivity to mandipropamid than the orthogonal interaction” value (FIG. 6) was roughly 10 fold and the “interaction with wild type HAB1” value (yeast two hybrid) was “weakly interacts”.
